# B1: recombinant neutral ceramidase: recombinant neutral ceramidase (Asah2, R&D, 3,000 pmol/min/μg), consumes plasma ceramide (protein, UniProt Q9JHE3 1-756, looked up)
# Neutral ceramidase: MAKRTFSTLEAFLIFLLVIMTVITVALLTLLFVTSGTIENHKDSGNHWFSTTLGSTTTQPPPITQTPNFPSFRNFSGYYIGVGRADCTGQVSDINLMGYGKNGQNARGLLTRLFSRAFILADPDGSNRMAFVSVELCMISQRLRLEVLKRLESKYGSLYRRDNVILSAIHTHSGPAGFFQYTLYILASEGFSNRTFQYIVSGIMKSIDIAHTNLKPGKIFINKGNVANVQINRSPSSYLLNPQSERARYSSNTDKEMLVLKLVDLNGEDLGLISWFAIHPVSMNNSNHFVNSDNMGYAAYLFEQEKNKGYLPGQGPFVAGFASSNLGDVSPNILGPHCVNTGESCDNDKSTCPNGGPSMCMASGPGQDMFESTHIIGRIIYQKAKELYASASQEVTGPVLAAHQWVNMTDVSVQLNATHTVKTCKPALGYSFAAGTIDGVSGLNITQGTTEGDPFWDTLRDQLLGKPSEEIVECQKPKPILLHSGELTIPHPWQPDIVDVQIVTVGSLAIAAIPGELTTMSGRRFREAIKKEFALYGMKDMTVVIAGLSNVYTHYITTYEEYQAQRYEAASTIYGPHTLSAYIQLFRDLAKAIATDTVANMSSGPEPPFFKNLIASLIPNIADRAPIGKHFGDVLQPAKPEYRVGEVVEVIFVGANPKNSAENQTHQTFLTVEKYEDSVADWQIMYNDASWETRFYWHKGILGLSNATIYWHIPDTAYPGIYRIRYFGHNRKQELLKPAVILAFEGISSPFEVVTT
# What was measured:
# [1] = test system: mice stressed with glucocorticosterone or chronic unpredictable environmental stress (CUS); experiment: i.v. treatment of stressed mice with anti-ceramide antibodies or neutral ceramidase; behavior and neurogenesis; type: in vivo; settings: mice stressed 6 days with glucocorticosterone or CUS
# [2] = test system: healthy wildtype mice injected with blood plasma from stressed mice; experiment: blood plasma from stressed mice treated in vitro, injected i.v. into healthy wildtype mice; type: in vivo; settings: plasma from stressed mice incubated in vitro with agent, 125 μL i.v. into non-stressed mice, 24 h later; FIGS. 3a, 3b
# Protocol: Corticosterone (Sigma, St. Louis, Mo.) was administered to mice via the drinking water at 120 mg/L for 7 days. In the chronic unpredictable stress model (CUS), the mice were challenged with unpredictable environmental stress for 8 days, i.e., a reversal of the light/dark cycle, 3 h of 45° tilting of the cage twice each week, shaking at 125 rpm, food deprivation for 14 h, predator sounds (15 min) or wet cages (1 h) with two forms of stress per day in a randomized (unpredictable) order. Blood was collected from the heart into heparin-coated needles and tubes immediately after sacrifice by cervical dislocation. Blood plasma was centrifuged at 3500 rpm for 5 min at 4° C. in an Eppendorf centrifuge. […]
# (§1) Behavioral testing was performed between 3:00 p.m. and 6:00 p.m. under diffuse indirect room light. […] The time was recorded during which the mice explored a new environment before they began eating. […] The time that the mouse spent in each of the separate compartments was recorded. […] In the coat state test, the appearance of the coat (groomed vs unkempt coat) was scored on the head, neck, back, and ventrum with either a zero for normal status or a 1 for unkempt status. […] After 24 h the mice were again placed in a water-filled cylinder for 6 min, and the time of mobility or immobility during the last 4 min of the second trial was recorded. […]
# [3] = test system: untreated wildtype mice injected with exosomes purified from stressed mice; experiment: exosomes from stressed mice incubated ex vivo, injected i.v. into untreated wildtype mice; type: in vivo; settings: exosomes from stressed mice incubated 60 min ex vivo with agent, within 24 h, FIGS. 3c, 3d
# Protocol: To achieve in vitro neutralization of consumption of ceramide, 125 μL blood plasma or exosomes (purified from 150 μL blood plasma as described below) were incubated with 0.5 μg purified IgM anti-ceramide antibodies, 0.5 μg control IgM or 1 μg recombinant neutral ceramidase.
# To isolate exosomes from blood plasma, samples were centrifuged at 16,500×g for 20 min. The supernatant was then passed through a 0.22-μm filter and exosomes were harvested by centrifugation twice at 100,000×g for 70 min. The final pellet was resuspended in phosphate-buffered saline (PBS). Exosomes were pelleted by centrifugation at 100,000×g for 70 min, the supernatant was discarded, and the exosomes were resuspended and injected i.v. into healthy mice. […]
# as §1
# [4] = test system: healthy mice injected with exosomes from patients with MDD; experiment: exosomes from blood plasma of MDD patients treated in vitro, injected into healthy mice; type: in vivo; settings: human exosomes preincubated with agent, 24 h after injection, FIGS. 5a, 5b
# Protocol: Depressive patients (7 women, 10 men) aged >60 years (mean age=71.1 years, SD=4.7) were recruited at the Psychiatric University Hospital, Basel, Switzerland. […] For comparison, 9 healthy individuals without history of depression (mean age=70.9 years, SD=5.3) were included in the study. The study was approved by the “Ethikkommission der Nordwest—und Zentralschweiz” (EKNZ; No. 2015-148) and all participants provided written informed consent. […]
# as §1
# Exosomes were isolated from 150 μL blood plasma from patients with major depressive disorder (MDD), and from healthy control subjects. […] Behavior (FIG. 5a) and neurogenesis (FIG. 5b) were determined to measure the occurrence of MDD in mice after injection of human exosomes from depressed patients. […]
# [5] = Asah2, R&D; cited from earlier work
molecule,measurement,setting,value
B1,neurogenesis in the hippocampus (BrdU-positive cells),"[1]; 24 h after first i.v. injection, FIG. 2b",normalized neurogenesis
same,"behavioral signs of major depression (light/dark box, latency to feed, time in center, splash test, forced swim test, coat test)","[1]; i.v. injection 24 h and 12 h before analysis, FIG. 2a",abrogated behavioral signs of major depression in stressed mice
same,development of MDD (behavioral changes and neurogenesis in the hippocampus),[2],prevented the development of MDD
same,development of MDD (behavior parameters and neuronal proliferation),[3],prevented development of MDD
same,depressed behavior and reduced neurogenesis induced by exosomes from depressed patients,[4],prevented their effects on mice
same,activity of recombinant neutral ceramidase,[5],"3,000 pmol/min/μg"

# Source: patent US20210380722A1, “COMPOSITIONS AND METHODS FOR THE TREATMENT OF MAJOR DEPRESSIVE DISORDER” (Snake River Bioscience, Inc., priority 2019, published 2021)
